Reference: patent US20200079833A1 (AstraZeneca / MedImmune, published 2020)
Starred links: 1 amine or outer side, 2 acyl side, 3 side chain; linkers in the order of their positions; H or OH if unused. Non-standard residues stand in square brackets, D forms with d. Groups on a side chain read outwards from the residue. Primed or numbered codes have the meaning given here. No end group written: not given here. *: point of attachment. γGlu = O=C(O)[C@H](CCC(=O)[*:2])N[*:1]; Stearoyl = CCCCCCCCCCCCCCCCCC(=O)*; αMeF = C[C@](N)(Cc1ccccc1)C(=O)O; αMeK = C[C@](N)(CCCCN)C(=O)O; αMeS = C[C@](N)(CO)C(=O)O; PEG2′ = not defined here; Aib = CC(C)(N)C(=O)O

Assays:
Assay in all cases: cell-based or functional assay
[1] = biological target: T1, glucose-dependent insulinotropic peptide (gastric inhibitory polypeptide) receptor (human, UniProt P48546 22-466)
T1 sequence (looked up): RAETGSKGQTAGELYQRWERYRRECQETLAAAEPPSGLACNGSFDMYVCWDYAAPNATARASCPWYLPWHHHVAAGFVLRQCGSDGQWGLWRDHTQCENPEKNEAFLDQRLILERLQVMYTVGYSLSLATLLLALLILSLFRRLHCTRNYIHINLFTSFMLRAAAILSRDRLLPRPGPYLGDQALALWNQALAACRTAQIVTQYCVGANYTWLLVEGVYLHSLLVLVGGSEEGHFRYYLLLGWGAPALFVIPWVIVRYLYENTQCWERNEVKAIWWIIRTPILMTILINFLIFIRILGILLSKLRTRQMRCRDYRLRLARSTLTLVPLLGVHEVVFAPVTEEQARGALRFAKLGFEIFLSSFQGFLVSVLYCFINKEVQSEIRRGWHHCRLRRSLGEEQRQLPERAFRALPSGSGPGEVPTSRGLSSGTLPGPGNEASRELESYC

[2] = biological target: glucagon receptor (human, UniProt P47871 26-477)
Chain of glucagon receptor (P47871 26-477): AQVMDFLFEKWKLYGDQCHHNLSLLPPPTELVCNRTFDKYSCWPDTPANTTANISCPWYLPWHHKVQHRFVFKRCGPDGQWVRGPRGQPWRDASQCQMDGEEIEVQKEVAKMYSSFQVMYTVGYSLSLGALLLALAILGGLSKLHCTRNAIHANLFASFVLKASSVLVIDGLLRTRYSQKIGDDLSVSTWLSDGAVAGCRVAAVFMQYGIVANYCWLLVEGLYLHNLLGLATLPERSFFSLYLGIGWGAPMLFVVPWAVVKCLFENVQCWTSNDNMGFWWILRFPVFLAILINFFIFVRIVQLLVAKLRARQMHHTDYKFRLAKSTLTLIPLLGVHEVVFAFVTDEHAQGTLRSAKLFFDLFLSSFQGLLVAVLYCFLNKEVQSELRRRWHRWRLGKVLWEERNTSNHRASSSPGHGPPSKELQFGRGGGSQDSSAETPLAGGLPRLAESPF

[3] = biological target: GLP-1 receptor (human, UniProt P43220 24-463)

Row | Binder | Primary assay EC50 (cAMP), n1 [1] [nM] | Primary assay EC50 (cAMP), n2 [1] [nM] | Primary assay EC50 (cAMP), n1 [2] [nM] | Primary assay EC50 (cAMP), n2 [2] [nM] | Primary assay EC50 (cAMP), Mean pM GLP-1R [3] [pM] | Primary assay EC50 (cAMP), n1 [3] [nM] | Primary assay EC50 (cAMP), n2 [3] [nM]
1 | H[Aib]EGS[αMeF]TSDV[αMeS]S[αMeF]LEGEAA[αMeK]E[αMeF]IA[αMeF]VVEGG-NH2 (N-terminus assumed; SMILES CC[C@H](C)[C@H](NC(=O)[C@](C)(Cc1ccccc1)NC(=O)[C@H](CCC(=O)O)NC(=O)[C@](C)(CCCCN)NC(=O)[C@H](C)NC(=O)[C@H](C)NC(=O)[C@H](CCC(=O)O)NC(=O)CNC(=O)[C@H](CCC(=O)O)NC(=O)[C@H](CC(C)C)NC(=O)[C@](C)(Cc1ccccc1)NC(=O)[C@H](CO)NC(=O)[C@](C)(CO)NC(=O)[C@@H](NC(=O)[C@H](CC(=O)O)NC(=O)[C@H](CO)NC(=O)[C@@H](NC(=O)[C@](C)(Cc1ccccc1)NC(=O)[C@H](CO)NC(=O)CNC(=O)[C@H](CCC(=O)O)NC(=O)C(C)(C)NC(=O)[C@@H](N)Cc1c[nH]cn1)[C@@H](C)O)C(C)C)C(=O)N[C@@H](C)C(=O)N[C@@](C)(Cc1ccccc1)C(=O)N[C@H](C(=O)N[C@H](C(=O)N[C@@H](CCC(=O)O)C(=O)NCC(=O)NCC(N)=O)C(C)C)C(C)C) [SEQ ID NO 43] | 31 | 31 | 31 | 31 | 0.6 | 0.00045 | 0.00071
2 | H[Aib]EGS[αMeF]TSDV[αMeS]S[αMeF]LEGEAAEE[αMeF]IA[αMeF]VVEGG-NH2 (N-terminus assumed; SMILES CC[C@H](C)[C@H](NC(=O)[C@](C)(Cc1ccccc1)NC(=O)[C@H](CCC(=O)O)NC(=O)[C@H](CCC(=O)O)NC(=O)[C@H](C)NC(=O)[C@H](C)NC(=O)[C@H](CCC(=O)O)NC(=O)CNC(=O)[C@H](CCC(=O)O)NC(=O)[C@H](CC(C)C)NC(=O)[C@](C)(Cc1ccccc1)NC(=O)[C@H](CO)NC(=O)[C@](C)(CO)NC(=O)[C@@H](NC(=O)[C@H](CC(=O)O)NC(=O)[C@H](CO)NC(=O)[C@@H](NC(=O)[C@](C)(Cc1ccccc1)NC(=O)[C@H](CO)NC(=O)CNC(=O)[C@H](CCC(=O)O)NC(=O)C(C)(C)NC(=O)[C@@H](N)Cc1c[nH]cn1)[C@@H](C)O)C(C)C)C(=O)N[C@@H](C)C(=O)N[C@@](C)(Cc1ccccc1)C(=O)N[C@H](C(=O)N[C@H](C(=O)N[C@@H](CCC(=O)O)C(=O)NCC(=O)NCC(N)=O)C(C)C)C(C)C) [SEQ ID NO 44] | 31 | 31 | 31 | 31 | 6.7 | 0.0065 | 0.0069
3 | H[Aib]EGSFTSDV[αMeS]S[αMeF]LEGEAAK([PEG2′-PEG2′-γGlu-Stearoyl])E[αMeF]IA[αMeF]VV[αMeK]GG-NH2 [SEQ ID NO 45] | 26 | 26 | 26 | 26 | 3560 | 3.8 | 3.3
4 | H[Aib]EGS[αMeF]TSEVSS[αMeF]LEGEAA[αMeK]E[αMeF]IA[αMeF]VV[αMeK]GG-NH2 (N-terminus assumed; SMILES CC[C@H](C)[C@H](NC(=O)[C@](C)(Cc1ccccc1)NC(=O)[C@H](CCC(=O)O)NC(=O)[C@](C)(CCCCN)NC(=O)[C@H](C)NC(=O)[C@H](C)NC(=O)[C@H](CCC(=O)O)NC(=O)CNC(=O)[C@H](CCC(=O)O)NC(=O)[C@H](CC(C)C)NC(=O)[C@](C)(Cc1ccccc1)NC(=O)[C@H](CO)NC(=O)[C@H](CO)NC(=O)[C@@H](NC(=O)[C@H](CCC(=O)O)NC(=O)[C@H](CO)NC(=O)[C@@H](NC(=O)[C@](C)(Cc1ccccc1)NC(=O)[C@H](CO)NC(=O)CNC(=O)[C@H](CCC(=O)O)NC(=O)C(C)(C)NC(=O)[C@@H](N)Cc1c[nH]cn1)[C@@H](C)O)C(C)C)C(=O)N[C@@H](C)C(=O)N[C@@](C)(Cc1ccccc1)C(=O)N[C@H](C(=O)N[C@H](C(=O)N[C@@](C)(CCCCN)C(=O)NCC(=O)NCC(N)=O)C(C)C)C(C)C) [SEQ ID NO 7] | 100 | 100 | 100 | 100 | 389 | 0.35 | 0.43
5 | H[Aib]EGS[αMeF]TSDVSS[αMeF]LEGEAAK([PEG2′-PEG2′-γGlu-Stearoyl])E[αMeF]IA[αMeF]VV[αMeK]GG-NH2 [SEQ ID NO 46] | 26 | 26 | 26 | 26 | 1560 | 0.92 | 2.2
6 | H[Aib]EGS[αMeF]TSDV[αMeS]SYLEGEAAK([PEG2′-PEG2′-γGlu-Stearoyl])E[αMeF]IA[αMeF]VV[αMeK]GG-NH2 [SEQ ID NO 47] | 25 | 25 | 25 | 25 | 43.3 | 0.037 | 0.05
7 | H[Aib]EGS[αMeF]TSDV[αMeS]S[αMeF]LEGEAAK([PEG2′-PEG2′-γGlu-Stearoyl])EFIA[αMeF]VV[αMeK]GG-NH2 [SEQ ID NO 48] | 26 | 26 | 26 | 26 | 6.1 | 0.0039 | 0.0082
8 | H[Aib]EGS[αMeF]TSDV[αMeS]S[αMeF]LEGEAAK([PEG2′-PEG2′-γGlu-Stearoyl])E[αMeF]IAWVV[αMeK]GG-NH2 [SEQ ID NO 49] | 25 | 25 | 25 | 25 | 124 | 0.096 | 0.15
9 | H[Aib]EGS[αMeF]TSDV[αMeS]S[αMeF]LEGEAAK([PEG2′-PEG2′-γGlu-Stearoyl])E[αMeF]IA[αMeF]VVKGG-NH2 [SEQ ID NO 50] | 26 | 26 | 26 | 26 | 216 | 0.17 | 0.26
10 | H[Aib]EGSFTSDV[αMeS]S[αMeF]LEGEAAK([PEG2′-PEG2′-PEG2′-Stearoyl])E[αMeF]IA[αMeF]VV[αMeK]GG-NH2 [SEQ ID NO 51] | 26 | 26 | 26 | 26 | 2.1 | 0.0017 | 0.0024
11 | H[Aib]EGS[αMeF]TSDVSS[αMeF]LEGEAAK([PEG2′-PEG2′-PEG2′-Stearoyl])E[αMeF]IA[αMeF]VV[αMeK]GG-NH2 [SEQ ID NO 52] | 26 | 26 | 26 | 26 | 2 | 0.0015 | 0.0025
12 | H[Aib]EGS[αMeF]TSDV[αMeS]SYLEGEAAK([PEG2′-PEG2′-PEG2′-Stearoyl])E[αMeF]IA[αMeF]VV[αMeK]GG-NH2 [SEQ ID NO 53] | 26 | 26 | 26 | 26 | 0.9 | 0.00083 | 0.0009
13 | H[Aib]EGS[αMeF]TSDV[αMeS]S[αMeF]LEGEAAK([PEG2′-PEG2′-PEG2′-Stearoyl])EFIA[αMeF]VV[αMeK]GG-NH2 [SEQ ID NO 54] | 26 | 26 | 26 | 26 | 0.9 | 0.00079 | 0.00093
14 | H[Aib]EGS[αMeF]TSDV[αMeS]S[αMeF]LEGEAAK([PEG2′-PEG2′-PEG2′-Stearoyl])E[αMeF]IAWVV[αMeK]GG-NH2 [SEQ ID NO 55] | 25 | 25 | 25 | 25 | 1.8 | 0.0014 | 0.0023
